In the RNAGym collection of RNA variant scans (doi:10.7554/elife.80360):

B1: Hairpin Ribozyme (parent)
chain: GUCCUCUUUCACGUGCGCGUGAAAGAGAGAAGUGAACCAGAGAAACACACGUUGUGGUAUAUUACCUGGUA

Variants of: B1
Assay: self-cleavage, relative activity (ratio to wild type); higher = more cleavage; co-transcriptional

Variant | self-cleavage
A36U G42U | 0.173
A39G U63A | 0.111
C37U A41G | 0.994
A36U C65U | 0.113
C38U A43U | 0.153
C38U A43G | 0.0885
C38G A43U | 0.154
C38U G51C | 0.583
A39C U63A | 0.17
C37G | 0.363
C37U | 0.614
C37A | 0.345
C38A U60A | 0.0853
C38A A61U | 0.064
C38G A45G | 0.259
C38G A45C | 0.0432
C37A U52C | 0.266
C38U U62A | 0.128
C38U U62C | 0.273
C37U G69A | 0.46
C37U G69U | 0.438

Variant | self-cleavage
C38A A43U | 0.152
C38G G68U | 0.514
A36U U67C | 0.133
A36U C48G | 0.182
C37G A47C | 0.14
C37A G68C | 0.254
A39G A47U | 0.134
A39G A47G | 0.116
C38A A71U | 0.129
A39C G54A | 0.121
A39C A47C | 0.207
C37G G42C | 0.152
C38U A45G | 0.197
C38U A45C | 0.108
A39G U55C | 0.119
A39G U55G | 0.12
A39U A71C | 0.694
C37A A71C | 0.526
C37A A71U | 0.284
A39C U55A | 0.148
A36U A41C | 0.654

Variant | self-cleavage
C37G A44C | 0.16
A39C G56C | 0.144
A39C G56U | 0.134
A39C A45C | 0.174
A39C A45U | 0.231
C37G U67G | 0.132
C37G U67C | 0.167
C38A G68U | 0.735
C38A G68C | 0.137
C38G G56C | 0.0901
C38U A59U | 0.228
C38U U67A | 0.119
A39G A44C | 0.0747
A39C G42U | 0.11
C38U C50G | 0.0694
A39G A61G | 0.123
A39G A61C | 0.139
A39G A59U | 0.153
A39U C46A | 0.166
A39U C46U | 0.114
A39U G56A | 0.114

Variant | self-cleavage
C37G G68C | 0.131
A36U G40A | 0.296
C37A G51C | 0.239
A39U C66G | 0.135
A39U C66A | 0.121
C37U G57A | 0.169
A36U U53A | 0.464
C38G A41U | 0.358
A39C A44G | 0.0893
C38A C48U | 0.135
A39G G69U | 0.122
C37A A39U | 0.0999
C38U U58C | 0.544
C37U U60G | 0.451
C37U U60A | 0.352
C37U U60C | 0.645
C37A C50U | 0.138
A39G U58C | 0.272
C37U G54C | 0.338
C37U G42C | 0.226
C37U G42A | 0.198
